Substitutions are numbered along the chain they refer to. Numbers in names are those of the source. One block for each molecule: values may come before it.
Tests used:
[1] = molecular target: phenylpyruvate reductase from Lactobacillus sp. CGMCC 9967 (LaPPR) (Lactobacillus sp. CGMCC 9967); assay: crystal structure; apo-LaPPR wild type, sitting drop vapor diffusion, 20 °C, protein 28 mg/mL, 0.1 M citric acid pH 3.5, 14% w/v PEG 1000, 0.01 M beta-nicotinamide adenine dinucleotide; molecular replacement with PDB 3EVT
purified protein = substrate: O=C(O)C(=O)Cc1ccc(O)c(O)c1; assay: purified protein; assay type: biochemical, Lactobacillus sp. CGMCC 9967; settings: 2 mM NADH, Tris-HCl 50 mM pH 7.0, 30 °C

stoichiometry N [1]: 2
Molecule: phenylpyruvate reductase from Lactobacillus sp. CGMCC 9967 (LaPPR) (enzyme)

B1: LaPPR (Lactobacillus sp. CGMCC 9967) (protein)
chain: MMKILNSFSLKPEQRQTLEAAGHTVIDADKLDDATAQQIDVVYGWNAAATRVNFDRLQFVQAMSAGVDYLPLAELAKHHVLLANTSGIHAEPIAEYVLGALFTISRGILPAIRADRDMWTLRQERPPMTLLKGKTAVIFGTGHIGSTIATKLQALGLHTIGVSAHGRPAAGFDQVMTDVATHEAAGRADVVINALPLTPDTKHFYDEAFFAAASKQPLFINIGRGPSVDMAALTQALKNKQISAAALDVVDPEPLPQDSPLWGMTNVLLTPHISGTVPQLRDKVFKIFNDNLKTLISSGQLASHQVDLTRGY
notes: homodimer
Km (purified protein): 6.20 ± 0.15 mM | kcat (purified protein): 1.21 ± 0.03 s⁻¹ | kcat/Km (purified protein): 200 M⁻¹ s⁻¹

B2: LaPPR (Lactobacillus sp. CGMCC 9967; H143D/H89M/P256C) (protein)
chain: B1 chain with H89M, H143D, P256C
notes: homodimer
Km (purified protein): 2.52 ± 0.27 mM | kcat (purified protein): 5.74 ± 0.24 s⁻¹ | kcat/Km (purified protein): 2050 M⁻¹ s⁻¹

B3: LaPPR (Lactobacillus sp. CGMCC 9967; H143D/H89M) (protein)
chain: B1 chain with H89M, H143D
notes: homodimer
Km (purified protein): 3.63 ± 0.17 mM | kcat (purified protein): 2.35 ± 0.12 s⁻¹ | kcat/Km (purified protein): 650 M⁻¹ s⁻¹

B4: LaPPR (Lactobacillus sp. CGMCC 9967; H143D) (protein)
chain: B1 chain with H143D
notes: homodimer
Km (purified protein): 5.03 ± 0.14 mM | kcat (purified protein): 2.08 ± 0.11 s⁻¹ | kcat/Km (purified protein): 410 M⁻¹ s⁻¹

B5: LaPPR (Lactobacillus sp. CGMCC 9967; H89M) (protein)
chain: B1 chain with H89M
notes: homodimer
Km (purified protein): 5.74 ± 0.08 mM | kcat (purified protein): 1.37 ± 0.06 s⁻¹ | kcat/Km (purified protein): 240 M⁻¹ s⁻¹
